Source: US20220184124A1

Biological target: CD19 on Daudi cells (CD19 positive target tumor cells) (UniProt P15391)
Experiment: cell-based or functional assay

Sequence of UniProt P15391 (P15391 20-556 limits assumed): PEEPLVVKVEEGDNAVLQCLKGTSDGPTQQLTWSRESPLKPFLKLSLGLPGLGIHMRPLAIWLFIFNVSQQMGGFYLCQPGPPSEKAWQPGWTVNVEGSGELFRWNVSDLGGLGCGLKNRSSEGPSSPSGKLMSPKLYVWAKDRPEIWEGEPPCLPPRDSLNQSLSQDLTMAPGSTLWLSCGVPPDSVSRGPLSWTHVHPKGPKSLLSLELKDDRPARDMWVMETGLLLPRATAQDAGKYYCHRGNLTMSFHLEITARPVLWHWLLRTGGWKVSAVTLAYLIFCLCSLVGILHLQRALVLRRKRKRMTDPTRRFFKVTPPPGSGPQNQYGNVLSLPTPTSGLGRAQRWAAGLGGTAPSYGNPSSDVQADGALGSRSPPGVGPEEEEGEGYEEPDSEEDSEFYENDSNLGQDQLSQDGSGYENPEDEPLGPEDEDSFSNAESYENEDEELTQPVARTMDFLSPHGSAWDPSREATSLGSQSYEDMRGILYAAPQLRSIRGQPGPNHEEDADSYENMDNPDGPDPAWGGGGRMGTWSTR

% CD107a+ of CD4+ T cells, 6 hr co-culture with Daudi cells: 30.4%
% CD107a+ of CD8+ T cells, 6 hr co-culture with Daudi cells: 44.6%
% CD107a+ of NK cells (CD5-CD56+), co-culture with Daudi cells: 32.5%
% CD107a+ of NKT cells, 6 hr co-culture with Daudi cells: 48.6%
% CD107a+ of TCRγδ T cells, co-culture with Daudi cells: 23.2%
% CD107a+ of residual TCRαβ+ cells, 6 hr co-culture with Daudi cells: 64.8%
% IFNγ+ of CD8+ T cells, co-culture with Daudi cells: 16.7%
% IFNγ+ of NKT cells, co-culture with Daudi cells: 24.8%
% IFNγ+ of TCRγδ T cells, co-culture with Daudi cells: 7.46%
% IFNγ+ of residual TCRαβ+ cells, co-culture with Daudi cells: 50.9%
% IL2+ of CD8+ T cells, co-culture with Daudi cells: 0.69%
% IL2+ of NKT cells, co-culture with Daudi cells: 1.07%
% IL2+ of TCRγδ T cells, co-culture with Daudi cells: 0.23%
% IL2+ of residual TCRαβ+ cells, co-culture with Daudi cells: 13.9%
% TNFα+ of CD8+ T cells, co-culture with Daudi cells: 21.5%
% TNFα+ of NKT cells, co-culture with Daudi cells: 28.3%
% TNFα+ of TCRγδ T cells, co-culture with Daudi cells: 12.9%
% TNFα+ of residual TCRαβ+ cells, co-culture with Daudi cells: 50%
Substance: CD19(4G7) scFv/4-1BB/CD3ζ CAR (receptor)
